Assay results as given in US20200239579A1 (Genmab, published 2020).

B1: IgG1-511-LC33S-FEAR (antibody, V domains shown)
VH: QVQLVQSGSELKKPGASVMVSCKASGYTFTSYVMNWVRQAPGQGLEWMGWINSYTGNPTSAQGFTGRFVFSFDTSVNTAYLQISSLKAEDTAVYYCARGYCTSTSCYLDYWGQGTLVTVSS
VL: SYELTQPPSVSVSPGHTARITCSGDALPKKYASWFQQKSGQAPVLVIYEDSKRPSGIPERFSGSTSGTMATLTISGAQVEDETDYYCYSADTSGTHRVFGGGTKLTVLG
B2: IgG1-338-FEAR (antibody, V domains shown)
VH: EVQVVESGGGLVQPGGSLRLSCAASGFTFSRFWMSWVRQAPGKGLEWVANIKQDGGEKYYVDSVKGRFTISRDNAKNSLYLQMNSLRGEDTAVYYCARDDNWNGHFDYWGQGTLVTVSS
VL: DIQMTQSPSTLSASVGDRVTITCRASQSISSWLAWYQQKPGKAPNLLIYKASSLESGVPSRFSGSGSGTEFTLTISSLQPDDFATYYCQQYYGSYITFGQGTRLEIKR
B3: IgG1-547-FEAR (antibody, V domains shown)
VH: EVQLLEPGGGLVQPGGSLRLSCEASGSTFSTYAMSWVRQAPGKGLEWVSGFSGSGGFTFYADSVRGRFTISRDSSKNTLFLQMSSLRAEDTAVYYCAIPARGYNYGSFQHWGQGTLVTVSS
VL: SYVLTQPPSVSVAPGQTARITCGGNNIGSKSVHWYQQKPGQAPVLVVYDDNDRPSGLPERFSGSNSGNTATLTISRVEAGDEADYYCQVWDSSSDHVVFGGGTKLTVLG

How the values were obtained:
[1] = target: T1, human PD-L1 (full length, on cells) (human, UniProt Q9NZQ7 19-290); assay: flow cytometry on PC3 cells, PE anti-human IgG secondary, MFI (PE)
T1 construct: The entry holds the signal peptide; also called CD274; B7H1
T1 sequence (Q9NZQ7 19-290 limits assumed): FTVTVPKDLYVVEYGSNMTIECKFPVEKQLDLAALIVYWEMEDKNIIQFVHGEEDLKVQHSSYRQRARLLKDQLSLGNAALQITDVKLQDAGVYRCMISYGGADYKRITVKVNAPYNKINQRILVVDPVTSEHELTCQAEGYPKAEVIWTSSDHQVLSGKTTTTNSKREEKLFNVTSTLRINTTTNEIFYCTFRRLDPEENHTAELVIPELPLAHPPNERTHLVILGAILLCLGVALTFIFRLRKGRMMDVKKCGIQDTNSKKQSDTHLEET
Protocol: (§1) Cells (3-5×10⁴ cells/well) were incubated in polystyrene 96-well round-bottom plates (Greiner bio-one, cat. no. 650101) with serial dilutions of antibodies (range 0.0001 to 10 μg/mL in 5-fold dilution steps) in 50 μL PBS/0.1% BSA/0.02% azide (staining buffer) at 4° C. for 30 min.
(§2) After washing twice in staining buffer, cells were incubated in 50 μL secondary antibody at 4° C. for 30 min. As a secondary antibody, R-Phycoerythrin (PE)-conjugated goat-anti-human IgG F(ab′)₂ (Cat. no. 109-116-098, Jackson ImmunoResearch Laboratories, Inc., West Grove, Pa.) diluted 1:500 in staining buffer, was used for all experiments. Next, cells were washed twice in staining buffer, re-suspended in 20 μL staining buffer and analyzed on an iQue screener (Intellicyt Corporation, USA). Binding curves were analyzed using non-linear regression (sigmoidal dose-response with variable slope) using GraphPad Prism V75.04 software (GraphPad Software, San Diego, Calif., USA).

PDLoneECDHisCtag [2] = target: T2, PDLoneECDHisCtag (human, UniProt Q9NZQ7 19-238); assay: BLI (Octet HTX), average of 3 experiments; antibody on AHC sensor, PDLoneECD-HisCtag as analyte
T2 construct: Expressed in HEK-293F cells; theoretical molecular weight 29 kDa; also called recombinant human PD-L1 ECD; human PD-L1 (BLI); not shown: C-terminal His-tag; C-tag
T2 sequence (Q9NZQ7 19-238, form in doubt): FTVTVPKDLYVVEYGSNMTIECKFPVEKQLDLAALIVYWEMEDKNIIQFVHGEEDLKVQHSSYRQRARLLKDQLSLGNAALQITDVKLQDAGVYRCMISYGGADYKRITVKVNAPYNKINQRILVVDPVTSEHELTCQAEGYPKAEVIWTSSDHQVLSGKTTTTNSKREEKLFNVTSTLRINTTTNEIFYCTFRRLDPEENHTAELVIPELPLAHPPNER
Protocol: (§3) In a first set of experiments, affinities for recombinant-expressed human PD-L1 protein were determined using Bio-layer interferometry (BLI) on an Octet HTX instrument (ForteBio). Anti-Human IgG Fc Capture (AHC) biosensors (ForteBio) were loaded for 900 s with antibodies (1 μg/ml). […] The experiment was carried out while shaking at 1000 rpm at 30° C. Data was analyzed with Data Analysis Software v9.0.0.12 (ForteBio) using the 1:1 model and a global full fit with 1000 s association time and 200 or 1000 s dissociation time. Data traces were corrected by subtraction of a buffer reference, the Y-axis was aligned to the last 10 s of the baseline, and interstep correction as well as Savitzky-Golay filtering was applied. Data traces with a response <0.05 nm were excluded from analysis. As default, the fit using 1000 s dissociation time was used.

PDLoneECDHisCtag [3] = target: T2, PDLoneECDHisCtag; assay: BLI cross-block, second antibody on PDLoneECDHisCtag held by immobilised 421-LC91S; plain = non-blocking
Protocol: (§4) Antibody cross-block testing was performed using biolayer interferometry (BLI) on an Octet HTX instrument (ForteBio). Antibodies (20 μg/ml in 10 mM sodium acetate buffer pH 6.0 (ForteBio)) were immobilized on Amine-Reactive 2nd Generation (AR2G) biosensors (ForteBio) according to the instructions of the manufacturer. After a baseline (50 s) in Sample Diluent (ForteBio), biosensors containing immobilized antibodies were loaded for 500 s with PDLoneECDHisCtag (100 nM or 2.7 μg/ml), after which the association response of a second antibody (10 μg/ml) was followed for 500 s. Biosensors were regenerated by using 3 times 5 s alternating exposures to 10 mM glycine pH 2.5 and Sample Diluent. The experiment was repeated with a new set of second antibodies starting from the baseline step. Each biosensor was used 6 times. The experiment was performed at 30° C. using a shaker speed of 1000 rpm. Data was analyzed using Data Analysis Software v9.0.0.12 (ForteBio). The Y-axis was aligned to the association step and Savitzky-Golay filtering was applied. The average buffer response was subtracted from the association response of the second antibody in order to correct for the dissociation of PDLoneECDHisCtag from the immobilized antibody. The corrected association responses were plotted in a matrix format.

PDLoneECDHisCtag [4] = target: T2, PDLoneECDHisCtag; assay: BLI cross-block, second antibody on PDLoneECDHisCtag held by immobilised 547; plain = non-blocking
Protocol: as §4

PDLoneECDHisCtag [5] = target: T2, PDLoneECDHisCtag; assay: BLI cross-block, second antibody on PDLoneECDHisCtag held by immobilised MPDL; bold = blocking
Protocol: as §4

[6] = target: T1, human PD-L1 (full length, on cells); assay: flow cytometry on MDA-MB-231 cells, PE anti-human IgG secondary, MFI (PE)
Protocol: as §1, §2

PDLoneECDHisCtag [7] = target: T2, PDLoneECDHisCtag; assay: BLI cross-block, second antibody on PDLoneECDHisCtag held by immobilised MEDI; bold = blocking
Protocol: as §4

PDLoneECDHisCtag [8] = target: T2, PDLoneECDHisCtag; assay: BLI cross-block, second antibody on PDLoneECDHisCtag held by immobilised 511-LC33S; bold = blocking
Protocol: as §4

[9] = target: T1, human PD-L1 (full length, on cells); assay: flow cytometry on MDA-MB-231 cells, PE anti-human IgG secondary, MFI (PE); remark: listed apart in the source
Protocol: as §1, §2

PDLoneECDHisCtag [10] = target: T2, PDLoneECDHisCtag; assay: BLI cross-block, second antibody on PDLoneECDHisCtag held by immobilised 547; bold = blocking
Protocol: as §4

PDLoneECDHisCtag [11] = target: T2, PDLoneECDHisCtag; assay: BLI cross-block, second antibody on PDLoneECDHisCtag held by immobilised 632; plain = non-blocking
Protocol: as §4

PDLoneECDHisCtag [12] = target: T2, PDLoneECDHisCtag; assay: BLI (Octet HTX); antibody on anti-human IgG Fc capture sensor, PDLoneECDHisCtag as analyte; 1:1 global fit
Protocol: as §3

PDLoneECDHisCtag [13] = target: T2, PDLoneECDHisCtag; assay: BLI cross-block, second antibody on PDLoneECDHisCtag held by immobilised 421-LC91S; bold = blocking
Protocol: as §4

Binder	EC50 (read off the curve) [1] [µg/mL]	Kd (PDLoneECDHisCtag [2]) [nM]	koff (PDLoneECDHisCtag [2]) [s⁻¹]	kon (PDLoneECDHisCtag [2]) [M⁻¹ s⁻¹]	association response of the second antibody (PDLoneECDHisCtag [3]) [nm]	association response of the second antibody (PDLoneECDHisCtag [4]) [nm]	association response of the second antibody (PDLoneECDHisCtag [5]) [nm]	EC50 (read off the curve) [6] [µg/mL]	association response of the second antibody (PDLoneECDHisCtag [7]) [nm]	association response of the second antibody (PDLoneECDHisCtag [8]) [nm]	EC50 (read off the curve) [9] [µg/mL]	association response of the second antibody (PDLoneECDHisCtag [10]) [nm]	association response of the second antibody (PDLoneECDHisCtag [11]) [nm]	Kd (PDLoneECDHisCtag [12]) [nM]	koff (PDLoneECDHisCtag [12]) [s⁻¹]	kon (PDLoneECDHisCtag [12]) [M⁻¹ s⁻¹]	association response of the second antibody (PDLoneECDHisCtag [13]) [nm]
B1	~0.03	5.1	0.0048	960000	0.3	0.7	0	~0.04	0	0	–	–	–	–	–	–	–
B2	–	0.31	0.00025	800000	–	–	0	~0.06	0	0	~0.02	0	0.6	0.088	6.4e-05	730000	-0.1
B3	–	0.12	0.00011	970000	–	–	0	~0.06	0	–	–	0	0.6	0.029	3.6e-05	1.2e+06	0
